Publication doi:10.1101/2024.02.23.581399 (bioRxiv, 2024)
Non-standard residues stand in square brackets, D forms with d. No end group written: not given here. pT = C[C@@H](OP(=O)(O)O)[C@H](N)C(=O)O; pS = N[C@@H](COP(=O)(O)O)C(=O)O

Target: T1, PLK1PBD (human, UniProt P53350 370-603)
T1 construct: PLK1, human, residues 370-603 (Polo-box domain); Labelled PLK1PBD without a tag in the amylose pull-downs and the crystal structures; also called PLK1_(370-603); Polo-Box Domain; source: E. coli BL21 Gold (DE3), purified (HisTrap, SEC)
Test: crystal structure; PLK1PBD mixed with two times molar excess of phospho-peptide, sitting drop, 18°C
Conditions: both partners purified

T1 sequence (P53350 370-603): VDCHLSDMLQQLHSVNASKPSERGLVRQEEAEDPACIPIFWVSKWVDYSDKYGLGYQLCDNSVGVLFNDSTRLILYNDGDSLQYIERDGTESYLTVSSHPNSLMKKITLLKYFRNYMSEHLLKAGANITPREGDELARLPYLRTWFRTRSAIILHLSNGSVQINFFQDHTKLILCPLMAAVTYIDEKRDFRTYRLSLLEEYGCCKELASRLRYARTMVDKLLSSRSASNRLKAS

B1: Mis18BP1_(72-82) phospho-peptide (KNIFQSTphMLTE) (peptide)
peptide: KNIFQS[pT]MLTE
notes: Mis18BP1, human, residues 72-82; also called T78ph peptide; Mis18BP1_(T78ph); source: synthetic peptide (Peptide Synthetics)
  binding result: binds

B2: Mis18α_(49-55) phospho-peptide (ASMWSSphM) (peptide)
peptide: ASMWS[pS]M
notes: also called S54ph peptide; Mis18α_(S54ph); source: synthetic peptide (Peptide Synthetics)
  binding result: binds
